PMC12210189, “Crystal structure of the sucrose phosphorylase from Alteromonas mediterranea shows a loop transition in the active site” (Acta Crystallographica Section F: Structural Biology …, 2025)

Molecular target: the molecule itself
Assay: crystal structure; sitting drop, 295 K; protein 6.9 mg/ml in 25 mM HEPES, 50 mM NaCl, 0.5 mM DTT pH 7.0; reservoir 60%(v/v) Tacsimate pH 7.0; apo enzyme; 2.15 Å; two molecules (one dimer) in the asymmetric unit

B1: sucrose phosphorylase from Alteromonas mediterranea (enzyme)
chain: MGSIRNGVQLITYADRLGDGNIESLTNLLDGPLKGLFKGVHILPFYYPYDGEDAGFDPIDHTTVDERLGDWNNIKKLGESVDIMADLIVNHMSGQSEAFTDVLKKGRESEYWPLFLTKEDVFSGNDQAEIDEQIAKVFRPRPTPFFSDYEVGIETDSTETVPFWTTFTSNQIDIDVESELGKEYLSSILQSFTESNVDLIRLDAAGYAIKRAGSNCFMLEETFEFIEALSKRARTMGMQCLVEIHSHYQTQIDIAARCDSVYDFALPPLVLHTLFTKDASALAHWLSISPRNCFTVLDTHDGIGIVDVGASGDKPGLISADAINALVEQIHVNSNGESKKATGAAANNVDLYQVNCTYYDALGKDDFAYLVARAIQFFSPGIPQVYYGGLLAAHNDMELLANTNVGRDINRPYLTTAMVEDAIQKPVVKGLMQLITLRNENKAFGGAFDVTYTDNTLVLSWSNDGDAASLTVDFAAMDATINTVSNGEESTLSIGALLA
notes: sucrose phosphorylase (AmSP-WT), Alteromonas mediterranea, UniProt S5AE64_9ALTE; synthetic gene in pET-28b; also called AmSP; AmSP-WT; source: E. coli BL21(DE3), purified (Ni-NTA IMAC, size-exclusion chromatography)
stoichiometry N: 2
